According to US20120214748A1, “NOVEL PEPTIDES, PROCESS FOR PREPARATION THEREOF, AND USE THEREOF” (priority 2009, published 2012):

Columns and labels:
[1] = target: Thrombin; assay: enzyme inhibition, Z-Gly-Pro-Arg-pNa substrate, tight-binding fit
[2] = target: MASP-2 CCP1-CCP2-SP (human), O00187; assay: enzyme inhibition, Z-L-Lys-SBzl substrate, tight-binding fit
[3] = target: Trypsin; assay: as above
Sequence of Trypsin (P00760 24-246): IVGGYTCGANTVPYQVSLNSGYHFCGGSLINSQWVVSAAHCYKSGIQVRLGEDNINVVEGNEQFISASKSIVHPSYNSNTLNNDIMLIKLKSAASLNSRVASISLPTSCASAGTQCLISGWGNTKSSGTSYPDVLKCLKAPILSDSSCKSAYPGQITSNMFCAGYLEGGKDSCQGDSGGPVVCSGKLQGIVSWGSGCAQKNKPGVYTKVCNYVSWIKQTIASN

Sequence of MASP-2 CCP1-CCP2-SP (human), O00187 (O00187 298-686 limits assumed): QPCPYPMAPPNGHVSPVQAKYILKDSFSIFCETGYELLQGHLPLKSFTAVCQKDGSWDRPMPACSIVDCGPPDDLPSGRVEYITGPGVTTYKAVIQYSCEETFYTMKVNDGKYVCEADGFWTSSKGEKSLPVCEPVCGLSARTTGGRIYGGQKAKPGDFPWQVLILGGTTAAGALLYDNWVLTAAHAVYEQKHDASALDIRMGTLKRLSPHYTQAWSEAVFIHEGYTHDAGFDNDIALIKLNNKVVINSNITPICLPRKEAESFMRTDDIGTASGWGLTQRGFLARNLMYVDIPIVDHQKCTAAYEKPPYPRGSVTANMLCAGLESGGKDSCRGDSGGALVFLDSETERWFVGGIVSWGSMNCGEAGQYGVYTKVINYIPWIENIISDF

Binder	Ki [1] [µM]	Ki [2] [nM]	Ki [3] [nM]
GRCTKSIPPICFPD (modifications not checked) [wild-type SFTI (Sun Flower Trypsin Inhibitor)]	140		
GYCSRSYPPVCIPD (modifications not checked) [M2-6E]	550	180	1000
